The values below come from patent US7868228.

The data set deals with Moritella marina polyketide synthase (PKS), four polypeptides Orf5, Orf6, Orf7 and Orf8.

B1: Shewanella oneidensis MR-1 phosphopantetheinyl transferase (So-ppt) (protein)
chain: MKIELFFIPLAEMDAEMVSRCMALLSEDERAKVARYLAPKAQMNGLLVRAALRCVLSQGLQSPNESSLNAFSSNTGSLPIAPQDWCFEYGAKGKPSLCHEQFLKTGIEFNLSHSGDWLLIALAQGRAHTKFIDQSAKTRLGLGVDIERARASTNIYPILNHYFSARETEALLALPGETAHRQRFFDLWALKESYIKATGLGLAQSLKSFAFELMPDALVEVHPNQVALRHEWVELKRREPFALPSQLKLYCEIKPTAAFLPDSAHPPPENLHVQSYFGRLDEEYRFGLSLIHPNALSNVQISMTLASIKSLLAASLAD
As for B1, the “DHA Produced (gas chromatography of fatty acid methyl esters from E. coli co-expressing the Ppt and the PKS)” value (from here on “DHA Produced”) is on record as “Yes”.

B2: Moritella marina phosphopantetheinyl transferase, long form (Mm-ppt long) (protein)
chain: LVQLKTYDETRLRSDGVNYLGGNLSYYQACNGKRIILVSILIMYSGVKDKLTLTTNEIHLWSVTPQTIQQPELLQAYSQLLSPAETIKQQRFRFEKDRHNALITRAFVRDLLSHYADVLPADWQFVKGEKDKPEIANPPLPLRFNISHTDNLIICAVMLNDDIGCDVENTLRSSNVLSIAKHSFSDSEFNDLLTQPTAQQTSRFFDYWTLKESYIKAWGLGLSIPLKDFSFTLPEGFQQQYQQEDQQENQHCIDTIKLSFAPHRIDNPNIWRHWLFYPNNTHRVALAVRARSNNQQTEYKMRFFNSTPLINITETLIFKPETNFKPDAK
For the protein B2, the “DHA Produced” value is “Yes”.

B3: Colwellia psychrerythraea phosphopantetheinyl transferase (Cp-ppt) (protein)
chain: MTSFSQSELSTRTKEKLDLAANEIHIWVTKPEELLGNDELLATYSTLLTSTETAKQQRYKFAKDRHDALITRAFIRDLLSYYADVAPQDWQFEKGNKDKPEVINCPLPLRFNISHTKNLIICAVTLEDDIGCDVENTGRNNNVLAIAERYFSSKEIDELFALPEAQQRNRFFDYWTLKESYIKAWGLGLAIPLADFSFKINDTEHNHNGLFTIKQDINLSFAEHRVDEPQIWRSWLVYPTAAIDEKQEHRIAVSLRATSDNQKTDYQLRFFNTLPLLGYQEI
Regarding B3, the “DHA Produced” value was “Yes”.

B4: Moritella marina phosphopantetheinyl transferase, short form (Mm-ppt short) (protein)
chain: MYSGVKDKLTLTTNEIHLWSVTPQTIQQPELLQAYSQLLSPAETIKQQRFRFEKDRHNALITRAFVRDLLSHYADVLPADWQFVKGEKDKPEIANPPLPLRFNISHTDNLIICAVMLNDDIGCDVENTLRSSNVLSIAKHSFSDSEFNDLLTQPTAQQTSRFFDYWTLKESYIKAWGLGLSIPLKDFSFTLPEGFQQQYQQEDQQENQHCIDTIKLSFAPHRIDNPNIWRHWLFYPNNTHRVALAVRARSNNQQTEYKMRFFNSTPLINITETLIFKPETNFKPDAK
Regarding B4, the “DHA Produced” value was “Yes”.
